T1: D1 (h) (human), P21728
T1 chain: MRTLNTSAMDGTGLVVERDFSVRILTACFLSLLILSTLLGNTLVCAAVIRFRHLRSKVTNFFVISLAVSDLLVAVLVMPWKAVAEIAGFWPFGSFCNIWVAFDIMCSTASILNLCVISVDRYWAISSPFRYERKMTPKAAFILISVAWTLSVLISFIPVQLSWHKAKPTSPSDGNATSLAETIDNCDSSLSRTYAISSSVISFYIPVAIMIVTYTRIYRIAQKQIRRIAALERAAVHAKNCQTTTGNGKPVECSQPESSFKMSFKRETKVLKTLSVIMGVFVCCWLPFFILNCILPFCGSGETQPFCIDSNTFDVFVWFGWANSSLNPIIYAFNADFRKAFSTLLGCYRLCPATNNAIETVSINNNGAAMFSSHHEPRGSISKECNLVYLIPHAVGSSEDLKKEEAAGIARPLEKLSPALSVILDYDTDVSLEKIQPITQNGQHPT

T2: D2S (h) (human), P14416
T2 chain: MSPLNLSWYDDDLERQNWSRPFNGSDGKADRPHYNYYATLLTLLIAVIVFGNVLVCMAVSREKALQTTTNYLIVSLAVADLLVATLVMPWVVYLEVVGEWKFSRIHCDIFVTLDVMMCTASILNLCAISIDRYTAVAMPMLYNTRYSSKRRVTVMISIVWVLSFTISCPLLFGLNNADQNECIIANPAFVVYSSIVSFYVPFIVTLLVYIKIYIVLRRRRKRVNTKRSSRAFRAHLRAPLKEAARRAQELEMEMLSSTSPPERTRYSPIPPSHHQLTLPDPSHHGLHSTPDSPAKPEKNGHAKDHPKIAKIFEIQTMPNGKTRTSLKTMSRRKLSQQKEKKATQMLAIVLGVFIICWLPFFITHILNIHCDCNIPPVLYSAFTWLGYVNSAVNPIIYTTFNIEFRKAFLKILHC

T3: Potassium Channel hERG (human) (human), Q12809
T3 chain: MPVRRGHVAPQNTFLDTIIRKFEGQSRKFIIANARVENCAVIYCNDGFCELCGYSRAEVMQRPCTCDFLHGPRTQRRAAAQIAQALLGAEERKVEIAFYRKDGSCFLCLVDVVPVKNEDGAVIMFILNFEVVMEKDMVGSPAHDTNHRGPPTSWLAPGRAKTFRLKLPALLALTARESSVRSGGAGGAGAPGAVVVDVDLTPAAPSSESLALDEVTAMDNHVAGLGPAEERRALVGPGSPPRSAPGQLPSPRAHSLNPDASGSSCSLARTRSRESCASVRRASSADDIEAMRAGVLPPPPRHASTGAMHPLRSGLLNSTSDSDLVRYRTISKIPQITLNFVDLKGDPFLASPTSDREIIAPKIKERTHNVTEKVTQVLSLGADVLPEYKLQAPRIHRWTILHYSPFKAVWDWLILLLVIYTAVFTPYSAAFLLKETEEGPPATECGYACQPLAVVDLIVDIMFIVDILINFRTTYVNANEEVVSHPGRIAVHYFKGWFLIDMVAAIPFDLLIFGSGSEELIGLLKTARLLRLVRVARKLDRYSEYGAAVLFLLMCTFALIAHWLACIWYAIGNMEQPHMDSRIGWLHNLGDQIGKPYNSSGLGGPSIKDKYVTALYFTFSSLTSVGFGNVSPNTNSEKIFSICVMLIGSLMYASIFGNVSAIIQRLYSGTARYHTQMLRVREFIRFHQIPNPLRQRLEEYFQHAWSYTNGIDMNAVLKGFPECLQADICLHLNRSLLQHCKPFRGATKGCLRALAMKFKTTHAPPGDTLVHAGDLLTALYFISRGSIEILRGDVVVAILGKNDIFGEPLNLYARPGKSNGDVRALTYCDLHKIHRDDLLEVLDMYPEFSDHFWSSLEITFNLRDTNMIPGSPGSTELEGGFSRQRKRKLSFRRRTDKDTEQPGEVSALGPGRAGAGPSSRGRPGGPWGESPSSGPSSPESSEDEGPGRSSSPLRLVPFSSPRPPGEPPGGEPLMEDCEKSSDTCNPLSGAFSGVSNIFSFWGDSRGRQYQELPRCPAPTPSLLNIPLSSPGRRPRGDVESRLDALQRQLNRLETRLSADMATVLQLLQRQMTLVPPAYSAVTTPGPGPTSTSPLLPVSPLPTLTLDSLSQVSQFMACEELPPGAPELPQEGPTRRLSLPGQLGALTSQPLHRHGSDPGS


What was measured:
Conditions in all cases: remark: other sources report otherwise
[1] = molecular target: beta 2 (h) (human), P07550; experiment: radioligand displacement, compound at 10 µM
D1 (h) (human), P21728 = molecular target: T1, D1 (h) (human), P21728; experiment: radioligand displacement, compound at 10 µM
D2S (h) (human), P14416 = molecular target: T2, D2S (h) (human), P14416; experiment: radioligand displacement, compound at 10 µM
[2] = molecular target: 5-HT2A (h) (human), P28223; experiment: radioligand displacement, compound at 10 µM
[3] = molecular target: T3, Potassium Channel hERG (human) (human), …; experiment: displacement of [3H] Dofetilide, compound at 10 µM
[4] = molecular target: human fibroblast activation protein (FAP) on human WI-38 fibroblasts (human); experiment: competitive FACS binding on FAP-expressing WI-38 cells against 3 nM Cy5-labeled compound; category A = pIC50 values >8.0

Chain of 5-HT2A (h) (human), P28223 (P28223 whole entry): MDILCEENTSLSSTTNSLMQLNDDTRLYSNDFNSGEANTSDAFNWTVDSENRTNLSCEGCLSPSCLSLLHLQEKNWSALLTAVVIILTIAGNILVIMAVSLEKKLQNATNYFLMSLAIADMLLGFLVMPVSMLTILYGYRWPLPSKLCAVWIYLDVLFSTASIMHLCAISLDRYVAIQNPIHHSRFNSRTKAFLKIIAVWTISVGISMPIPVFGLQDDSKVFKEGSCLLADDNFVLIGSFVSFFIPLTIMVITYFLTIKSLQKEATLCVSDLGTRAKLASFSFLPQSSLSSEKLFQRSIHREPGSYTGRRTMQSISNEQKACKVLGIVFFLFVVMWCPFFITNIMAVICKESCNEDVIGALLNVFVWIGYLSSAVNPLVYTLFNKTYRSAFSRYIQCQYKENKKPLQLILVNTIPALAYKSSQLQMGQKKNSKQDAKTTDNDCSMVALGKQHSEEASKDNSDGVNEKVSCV

% Inhibition of Specific Binding [1] | % Inhibition of Specific Binding (D1 (h) (human), P21728) | % Inhibition of Specific Binding (D2S (h) (human), P14416) | % Inhibition of Specific Binding [2] | pIC50 Category (FACS) [4] | Binder | % Inhibition of Specific Binding [3]
4% | 0% | 15% | -2% |  | CPPTQFCD (here or on the partner: N-terminal hexanoyl (Hex); Cys1 and Cys7 cyclised through tMeBn carrying DOTA-PP; C-terminal amide) [Hex-[Cys(tMeBn(DOTA-PP))-Pro-Pro-Thr-Gln-Phe-Cys]-Asp-NH2 (3BP-3407)] | 2%
8% | 7% | -7% | 4% | > 8 pIC50 | CPPTQFC (here or on the partner: N-terminal hexanoyl (Hex); Cys1 and Cys7 cyclised through tMeBn carrying DOTA-AET; free C-terminal acid (-OH)) [Hex-[Cys(tMeBn(DOTA-AET))-Pro-Pro-Thr-Gln-Phe-Cys]-OH (3BP-3554)] | 6%

Reference: patent US12427210B2, “Compounds comprising a fibroblast activation protein ligand and use thereof” (priority 2019, dated 2025)
